Biological target: the molecule itself
Test: SEC

B1: bacterioferritin B (BfrB) from Mycobacterium tuberculosis (natural protein)
chain: MTEYEGPKTKFHALMQEQIHNEFTAAQQYVAIAVYFDSEDLPQLAKHFYSQAVEERNHAMMLVQHLLDRDLRVEIPGVDTVRNQFDRPREALALALDQERTVTDQVGRLTAVARDEGDFLGEQFMQWFLQEQIEEVALMATLVRVADRAGANLFELENFVAREVDVAPAASGAPHAAGGRL
notes: also called BrfB; mycobacterial ferritin; copies: 24
  binding result: binds

Reference: publication PMC8329864, “Mycobacterium tuberculosis ferritin: a suitable workhorse protein for cryo-EM development” (Acta Crystallographica. Section D, Structural Biology, 2021)
